Data on 11 molecules can be found in publication PMC10397247.

Experiment in all cases: two-hybrid library CCmax;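 further: natural log of median RNA to DNA barcode read ratio; higher means stronger binding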
The target of assay [1] is T1, APC2237-AA.
T1 chain: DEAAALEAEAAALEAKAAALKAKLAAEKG
Conditions: mean of both orientations.

In assay [2] the target is T2, APC2405-AA.
T2 chain: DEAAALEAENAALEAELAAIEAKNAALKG
Conditions: mean of both orientations.

The target of assay [3] is T3, APC5383-AA.
T3 chain: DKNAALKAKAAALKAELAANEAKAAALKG
Conditions: mean of both orientations.

Assay [4] deals with T4, 4H2458-AA.
T4 chain: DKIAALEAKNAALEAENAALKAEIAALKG
Conditions: mean of both orientations.

For assay [5], the target named is T5, P6-AA-12HGe-D.
T5 chain: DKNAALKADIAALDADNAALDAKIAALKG
Conditions: mean of both orientations.

Assay [6] has as its target T6, P6-AA-1HGe-S.
T6 chain: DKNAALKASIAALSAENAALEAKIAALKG
Conditions: mean of both orientations.

The target in assay [7] is T7, P6-AA-12HGe-S.
T7 chain: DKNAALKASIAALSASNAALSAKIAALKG
Conditions: mean of both orientations.

Assay [8] deals with T8, P6-AA-1HGe-H.
T8 chain: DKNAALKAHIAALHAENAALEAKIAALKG
Conditions: mean of both orientations.

Assay [9] deals with T9, P6-AA-12HAA-H.
T9 chain: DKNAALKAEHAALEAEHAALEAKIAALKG
Conditions: mean of both orientations.

Assay [10] deals with T10, P6-AA-12HAA-R.
T10 chain: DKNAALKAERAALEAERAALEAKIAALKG
Conditions: mean of both orientations.

The target in assay [11] is T11, P6-AA-12HAA-D.
T11 chain: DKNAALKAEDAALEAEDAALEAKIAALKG
Conditions: mean of both orientations.

Assay [12] has as its target T12, 4H3417-AA.
T12 chain: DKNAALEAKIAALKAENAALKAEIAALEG
Conditions: mean of both orientations.

Assay [13] addresses T13, 4H3102-AA.
T13 chain: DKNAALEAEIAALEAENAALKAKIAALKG
Conditions: mean of both orientations.

Assay [14] deals with T14, 4H656-AA.
T14 chain: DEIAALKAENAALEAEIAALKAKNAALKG
Conditions: mean of both orientations.

The target of assay [15] is T15, 4H3666-AA.
T15 chain: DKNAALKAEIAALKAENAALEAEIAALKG
Conditions: mean of both orientations.

Assay [16] deals with T16, 4H478-AA.
T16 chain: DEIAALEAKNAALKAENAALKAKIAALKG
Conditions: mean of both orientations.

For assay [17], the target named is T17, O8-AA.
T17 chain: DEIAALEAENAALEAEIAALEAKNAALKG
Conditions: mean of both orientations.

In assay [18] the target is T18, 4H3449-AA.
T18 chain: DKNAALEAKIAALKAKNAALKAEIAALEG
Conditions: mean of both orientations.

For assay [19], the target named is T19, 4H3974-AA.
T19 chain: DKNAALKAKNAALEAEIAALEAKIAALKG
Conditions: mean of both orientations.

The target of assay [20] is T20, 4H2947-AA.
T20 chain: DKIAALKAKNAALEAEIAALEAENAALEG
Conditions: mean of both orientations.

Assay [21] has as its target T21, 4H3619-AA.
T21 chain: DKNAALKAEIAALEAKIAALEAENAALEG
Conditions: mean of both orientations.

The target in assay [22] is T22, 4H3777-AA.
T22 chain: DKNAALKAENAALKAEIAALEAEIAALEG
Conditions: mean of both orientations.

Assay [23] addresses T23, 4H2512-AA.
T23 chain: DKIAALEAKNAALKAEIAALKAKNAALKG
Conditions: mean of both orientations.

For assay [24], the target named is T24, 4H369-AA.
T24 chain: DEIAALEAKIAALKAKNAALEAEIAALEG
Conditions: mean of both orientations.

Assay [25] has as its target T25, 4H2873-AA.
T25 chain: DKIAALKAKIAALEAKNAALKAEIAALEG
Conditions: mean of both orientations.

In assay [26] the target is T26, 4H327-AA.
T26 chain: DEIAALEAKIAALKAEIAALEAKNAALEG
Conditions: mean of both orientations.

The target in assay [27] is T27, 4H390-AA.
T27 chain: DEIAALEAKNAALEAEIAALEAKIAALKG
Conditions: mean of both orientations.

Assay [28] concerns the target T28, 4H2687-AA.
T28 chain: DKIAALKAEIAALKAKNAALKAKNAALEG
Conditions: mean of both orientations.

Assay [29] deals with T29, 4H1738-AA.
T29 chain: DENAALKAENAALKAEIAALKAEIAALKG
Conditions: mean of both orientations.

Assay [30] has as its target T30, 4H1639-AA.
T30 chain: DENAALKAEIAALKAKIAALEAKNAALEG
Conditions: mean of both orientations.

In assay [31] the target is T31, 4H1324-AA.
T31 chain: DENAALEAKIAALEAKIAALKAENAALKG
Conditions: mean of both orientations.

Assay [32] concerns the target T32, 4H1352-AA.
T32 chain: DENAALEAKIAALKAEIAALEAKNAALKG

In assay [33] the target is T33, P5-AA-1HGe-S.
T33 chain: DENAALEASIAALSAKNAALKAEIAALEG
Conditions: mean of both orientations.

Assay [34] has as its target T34, P5-AA-1HAA-K.
T34 chain: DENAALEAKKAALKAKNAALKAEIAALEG
Conditions: mean of both orientations.

Assay [35] addresses T35, P5-AA-1HGe-D.
T35 chain: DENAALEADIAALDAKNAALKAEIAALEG
Conditions: mean of both orientations.

In assay [36] the target is T36, P5-AA-12HGe-S.
T36 chain: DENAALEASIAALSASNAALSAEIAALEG
Conditions: mean of both orientations.

For assay [37], the target named is T37, P5-AA-1HAA-D.
T37 chain: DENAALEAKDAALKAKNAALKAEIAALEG
Conditions: mean of both orientations.

In assay [38] the target is T38, P5-AA-12HGe-R.
T38 chain: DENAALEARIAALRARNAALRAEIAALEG
Conditions: mean of both orientations.

Assay [39] addresses T39, P5-AA-1HAA-N.
T39 chain: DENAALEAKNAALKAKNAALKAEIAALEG
Conditions: mean of both orientations.

The target in assay [40] is T40, P5-AA-12HGe-E.
T40 chain: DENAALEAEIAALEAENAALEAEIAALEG
Conditions: mean of both orientations.

Assay [41] addresses T41, 4H2898-AA.
T41 chain: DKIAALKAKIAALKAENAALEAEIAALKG
Conditions: mean of both orientations.

The target in assay [42] is T42, 4H3020-AA.
T42 chain: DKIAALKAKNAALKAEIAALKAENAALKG
Conditions: mean of both orientations.

As to DENAALKAKIAALEAKNAALEAKIAALEG [4H1845-AA], the interaction score in assay [1] was -1.46; in assay [2], -1.12; in assay [3], -1.57; in [4], -1.6.
On to DENAALEAKIAALKAKNAALKAEIAALEG [4H1401-AA], for which the interaction score is -0.647 in assay [5], 2.27 in assay [6], -0.834 in [7] and 1.77 in assay [8].
As to DENAALEAKIAALKAKIAALKAEIAALEG [4H1385-AA], the interaction score in assay [9] is 1.75; in assay [10] it was 1.72; in [11], -1.1.
As for DENAALEAEIAALEAKIAALEAKNAALKG [4H1064-AA], the interaction score in assay [12] was -1.43; in assay [13], -1.27; in assay [14] it was -1.36; in assay [15] it was -1.27; in [16], -1.56.
As to DEIAALEAENAALEAKIAALKAENAALEG [4H171-AA], the interaction score in assay [17] was determined as 0.645.
Turning to DEIAALEAENAALKAKNAALKAEIAALEG [4H249-AA], the interaction score is -1.43 in assay [18]; -0.0812 in assay [19]; -1.55 in [20]; -1.97 in assay [21]; -0.457 in assay [22].
Consider DENAALEAKIAALKAEIAALEAKIAALKG [4H1350-AA], for which the interaction score was -0.538 in assay [23]; 0.227 in assay [24]; 1.38 in assay [25]; 2.32 in assay [26]; 0.523 in [27]; -0.889 in assay [28].
In the case of DENAALKAEIAALKAENAALKAEIAALKG [4H1626-AA], the interaction score in [29] is -0.841; in assay [30], -1.38.
Consider DENAALEAENAALEAEIAALEAEIAALEG [4H1153-AA], for which the interaction score in [31] was -0.874; in assay [32], 0.
Turning to DKNAALKAEIAALEAENAALEAKIAALKG [4H3606-AA], the interaction score in assay [33] was 2.03; in assay [34] it was 2.15; in assay [35], 1.14; in assay [36], -0.516; in assay [37], 1.43; in [38], 1.65. In addition, the interaction score in [39] is 1.72; in [40] it was 0.858.
Consider DENAALEAENAALKAKIAALKAEIAALEG [4H1257-AA], for which the interaction score in assay [41] was -1.42; in assay [42], -1.1.
